{
  "source": "paper PMC10899635",
  "about": "“Q586B2 is a crucial virulence factor during the early stages of Trypanosoma brucei infection that is conserved amongst trypanosomatids” (Nature Communications, 2024)",
  "target": "recombinant Q586B2 protein (Trypanosoma brucei brucei)",
  "assay": "SEC; size exclusion chromatography after IMAC; uniform peak of approximately 55 kDa",
  "data": [
    {"substance": "recombinant Q586B2 protein (natural protein)", "values": [
      {"measurement": "stoichiometry N", "value": 4}
    ]}
  ]
}
